From the supplement of paper PMC7125110
± gives the standard error. Fewer inactive variants are shown than the library holds.

B1: glmS ribozyme (parent)
chain: AUAAAAGCGCCAGAACUACAGAAAUGUAGUUGACGAGGAGGAGGUUUAUCGAAUUUUCGGCGGAUGCCUCCAAA

Key:
Conditions in all cases: with glucosamine-6-phosphate
[1] = variants of: B1; assay: self-cleavage kobs at 640 uM GlcN6P; higher = faster cleavage; RNA array
Outline: (§1)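 Glucosamine-6-phosphate, from 40 μM to 10 mM in HEPES/KCl/Mg(OAc)2 buffer, was flowed over sequenced MiSeq chips carrying barcoded ribozyme variants transcribed in situ by E. coli RNA polymerase. A hybridised Cy3 probe tracked the variants at 37 °C as tiles were imaged over ~14 h. kobs, kcat and KM were obtained by fitting normalised per-tile medians to exponential decays and then applying weighted Michaelis–Menten fits across concentrations.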

[2] = variants of: B1; assay: self-cleavage kobs at 2500 uM GlcN6P; higher = faster cleavage; RNA array
Outline: as §1

[3] = variants of: B1; assay: self-cleavage kobs at 10000 uM GlcN6P; higher = faster cleavage; RNA array
Outline: as §1

Row | Variant | self-cleavage kobs at 640 uM GlcN6P [1] [s⁻¹] | self-cleavage kobs at 2500 uM GlcN6P [2] [s⁻¹] | self-cleavage kobs at 10000 uM GlcN6P [3] [s⁻¹]
1 | C10A C16U C68A | 0.000489 ± 0.00017 |  | 
2 | C8G C10U G38A U65G C68G | 4.45e-05 ± 1.9e-05 |  | 
3 | A6G G63U A64C C67U U69G | < 1e-05 | < 1e-05 | 
4 | U45C G63U C67U | < 1e-05 |  | 
5 | G29C A36C A39C | < 1e-05 |  | < 1e-05
6 | U46G G62C | < 1e-05 |  | < 1e-05
7 | U30C C34G | < 1e-05 |  | < 1e-05
8 | A52G C58G U65C | < 1e-05 |  | 
9 | G7U G37A A39C | < 1e-05 | < 1e-05 | 
10 | G38C U49A | < 1e-05 | < 1e-05 | < 1e-05
11 | U30G A39C U54G | 0.0002 ± 3.1e-05 | 0.00053 ± 8.2e-05 | 0.00136 ± 0.0002
12 | G9A U31G A52C | < 1e-05 |  | 
13 | A14U U30C U49A C50A C70G | 8.96e-05 ± 2.3e-05 |  | 
14 | C8A A15G A36C | < 1e-05 |  | 
15 | G44A A53U U54G C61U | < 1e-05 |  | 
16 | G37A U56G A64U | < 1e-05 | < 1e-05 | 
17 | G29C G51U C61G C70A | 9.9e-05 ± 3.7e-05 | 7.11e-05 ± 2.2e-05 | 
18 | C10U A33U U56C C68A | < 1e-05 |  | 
19 | U30C U55A G60A C71A | < 1e-05 |  | 
20 | A12U A42G C68U | 0.00273 ± 0.00096 |  | 
21 | C34G G43C A52G | < 1e-05 | < 1e-05 | 
22 | G32U A36U G44U A48G | < 1e-05 | < 1e-05 | 

Row | Variant | self-cleavage kobs at 640 uM GlcN6P [1] [s⁻¹] | self-cleavage kobs at 2500 uM GlcN6P [2] [s⁻¹] | self-cleavage kobs at 10000 uM GlcN6P [3] [s⁻¹]
23 | G9U G40C C50G | < 1e-05 | < 1e-05 | 
24 | C11A A36U C70G | 0.000284 ± 7e-05 | 0.000767 ± 0.00032 | 
25 | G43A G44A C58U | < 1e-05 |  | 
26 | C8G G66C | < 1e-05 | < 1e-05 | 
27 | U49A U57C | < 1e-05 |  | 
28 | U45C U46G U57A | < 1e-05 |  | 
29 | G40C A48G U56G G59U A64C C70G | < 1e-05 |  | 
30 | G40C A42C A48C A52U | < 1e-05 |  | < 1e-05
31 | U49G C68G U69G | 5.67e-05 ± 2.1e-05 |  | 
32 | C10A C58U G63A A64U | < 1e-05 | < 1e-05 | 
33 | G29C G44C C71U | < 1e-05 |  | 
34 | C10U C34G U46A A48U U69A | < 1e-05 | < 1e-05 | < 1e-05
35 | C10G U47A A53U G60U | < 1e-05 |  | 
36 | C34A C67U | < 1e-05 | < 1e-05 | 
37 | C8A C16U C50U U56G | < 1e-05 |  | 
38 | G9C C50U C58U | < 1e-05 | < 1e-05 | 
39 | A6G C10U U54G | < 1e-05 | < 1e-05 | < 1e-05
40 | G13A G44U | < 1e-05 | < 1e-05 | 
41 | G13A C61U | < 1e-05 | < 1e-05 | < 1e-05
42 | G9A U47A C70U | < 1e-05 |  | 
43 | G7C G29C C67G | < 1e-05 | < 1e-05 | 
44 | G32C G35A A36G | < 1e-05 |  | 

Row | Variant | self-cleavage kobs at 640 uM GlcN6P [1] [s⁻¹] | self-cleavage kobs at 2500 uM GlcN6P [2] [s⁻¹] | self-cleavage kobs at 10000 uM GlcN6P [3] [s⁻¹]
45 | G7U A15U G44C | < 1e-05 | < 1e-05 | 
46 | C11U U30G U57A C61U | < 1e-05 |  | 
47 | A39G G41A U49C | < 1e-05 |  | 
48 | G37C G60U U69A | < 1e-05 | < 1e-05 | 
49 | C8U G44A U45C | < 1e-05 | < 1e-05 | 
50 | U30A G60U C71A | < 1e-05 | < 1e-05 | 
51 | A14C G29A G35A G59A | < 1e-05 | < 1e-05 | 
52 | A15U U49C C68G | 0.00159 ± 0.00057 |  | 
53 | A15C U47G G66U | < 1e-05 |  | 
54 | G21A C70U | 0.00594 ± 0.0022 | 0.00398 ± 0.0016 | 
55 | G9U A33C G41U G62C | < 1e-05 | < 1e-05 | 
56 | G41A A53U U56G G60A | < 1e-05 | < 1e-05 | 
57 | A14U G35A G63U | < 1e-05 |  | 
58 | G32A G44U C67U | 0.000148 ± 2.8e-05 | 0.000244 ± 5.3e-05 | 
59 | G9A C10U A42G A53U | < 1e-05 | < 1e-05 | 
60 | A6U G7A G59A | < 1e-05 |  | 
61 | A33C C34G A53C U57A G66C | < 1e-05 |  | 
62 | A39G G51C U65C U69A C70A | < 1e-05 | < 1e-05 | 
63 | C10U G44U U54G U55C | < 1e-05 | < 1e-05 | 
64 | C10U C16U C71G | 6.17e-05 ± 2.9e-05 |  | 
